Assay results published in PMC12119765, “Unveiling the potential of copper-61 vs. gallium-68 for SSTR PET imaging” (European Journal of Nuclear Medicine and Molecular Imaging, 2025).

Tests used:
[1] = system: healthy control mice; test: PET/MR imaging in healthy control mice; type: in vivo
Procedure: (§1) A set of fiducial markers was used for an optimal PET/MRI co-registration. The breathing rate and body temperature of the animals were monitored throughout the imaging procedures (SA Instruments SA, USA). After the PET scan, a whole-body MRI was performed on a BioSpec 9.4T MRI scanner with a body volume resonator (transmitter/receiver) with the animal in the same position for anatomical co-localization. Anatomical reference images were obtained from axial and coronal multi-slice scans. A set of fiducial markers were used on the animal bed for an optimal PET/MRI co-registration. Quantitative image processing was performed using PMOD (PMOD, v 3.6; PMOD Technologies, Zürich, Switzerland, RRID: SCR_016547). FUSION Tools were used to deliniate volumes of interest (VOIs) on the PET images co-registered with the anatomical MRI. Blood samples were collected at 1, 2, and 4 h after injection for measurement of whole-blood radioactivity concentrations.

[2] = in vivo; conditions: male, athymic Swiss Foxn1nu, mouse, intravenous, total radioactivity; for tissue uptake at 1 h: AR42J tumor
Procedure: (§2) Animal studies were approved by the Animal Welfare Committee of the Institute for Nuclear Sciences Applied to Health (ICNAS) of University of Coimbra (ORBEA 05-2024) and by the Portuguese National Authority for Animal Health (DGAV). Athymic male Swiss Foxn1nu mice (28–32 g, 6–8 weeks old) were purchased from ICNAS and housed under pathogen free conditions in individually ventilated cages. To establish the tumor model, animals were injected subcutaneously in the left flank with 3 × 10^6 AR42J cells resuspended in 100 µL of PBS 50 with 50% Matrigel. Tumor growth was monitored twice weekly by caliper measurements and were allowed to grow to a maximum volume of 1 cm^3.
(§3) Mice were sacrificed at 1.5–4.5 h p.i. and perfused with PBS. Organs including brain, heart, lung, liver, kidney, spleen, stomach, intestine, bone, and muscle were collected and weighted. Blood samples were collected via tail vein bleeding at different time points to monitor the residence time of the radiopharmaceuticals in the circulation. After sacrifice, urine was directly collected from the bladder for radio-HPLC analysis of radiopharmaceutical integrity. The radioactivity of each sample was measured using an automated CRC-55tW gamma well counter (Mirion Technologies - Atlanta, GA, USA). Results were expressed as the percentage of injected dose per gram (ID/g) of tissue and presented as the mean ± SEM (N = 3 per radiopharmaceutical).

[3] = system: AR42J tumor-bearing mice; test: in vivo; conditions: AR42J tumor, 4 h p.i., mean ± SEM, N = 3
Procedure: as §2, §3

[4] = in vivo; conditions: male, athymic Swiss Foxn1nu, mouse, whole blood, total radioactivity
Procedure: as §1, §3

[5] = system: SSTR-expressing AR42J cells; test: Cell uptake and internalization studies in SSTR-expressing AR42J cells; type: cell-based, rat; conditions: for Intracellular (internalized) activity: 2 h incubation time, 0.5 nM, Fig. 2C, percentage per million cells; for Maximum total uptake into AR42J: at 2 h, 0.5 nM radiolabeled peptide; for Membrane-bound fraction over time: glycine buffer wash fraction, 15 min to 2 h
Procedure: The AR42J cell line, a natural SSTR-overexpressing epithelial-like cell isolated from a rat pancreatic tumor, was purchased from American Type Culture Collection (ATCC, CRL-1492) (Manassas, VA, USA) and cultured in F-12 K medium (ATCC, Catalog No. 30-2004) supplemented with 20% heat-inactivated fetal bovine serum (FBS, Gibco) and 1% PenStrep. The cells were maintained under standard adherent conditions in a humidified incubator with 5% CO2 at 37° C.
Cells were incubated at 37 °C for a maximum of 2–4 h (15 min, 30 min, 1 h, 2 h, and 4 h) for ^68Ga-based and ^61Cu-based radiopharmaceuticals, respectively. At the indicated time points, the cellular uptake was terminated by washing the cells with PBS. Cell surface-bound radioactivity was removed by an acid wash (50 mM glycine, pH 2.8) at RT for 5 min. The pH was neutralized with PBS, and the cells were lysed by incubation with 1 M NaOH at 37 °C for 5 min to determine internalized radioactivity. Each experiment was performed in triplicate. […] For blocking studies, parallel experiments were performed as described above, but cells were incubated in the presence of DOTA-TATE precursor (0.5 µM) at 37 °C for the same time points.

[6] = urine sample collected 4 h after i.v. injection
Procedure: as §3

[7] = In vitro stability in the final formulation (10% EtOH) by radioHPLC; type: physicochemical
Procedure: The HPLC method used is detailed in Table 1.
The stability of [^61Cu]Cu-NOTA-TATE was tested in the final formulation up to 6 h after EOS. At different time points (T0, T0 + 2, T0 + 4 and T0 + 6 h) aliquots were taken and measured using the previously described radioHPLC method.

[8] = system: tumor; set-up: method as in PMID 32297029; conditions: cited from earlier work
[9] = system: AR42J subcutaneous tumor-bearing mice; conditions: 1 h p.i., i.v.
Procedure: as §2
as §1, with “Anatomical reference images were obtained from axial and coronal multi-slice scans. A set of fiducial markers were used on the animal bed for an optimal PET/MRI co-registration.” left out, “FUSION Tools were used to deliniate volumes of interest (VOIs) on the PET images co-registered with the anatomical MRI.” left out

SMILES: C[C@@H](O)[C@H](NC(=O)[C@@H]1CSSC[C@H](NC(=O)[C@@H](Cc2ccccc2)NC(=O)CN2CCN(CC(=O)O)CCN(CC(=O)O)CC2)C(=O)N[C@@H](Cc2ccc(O)cc2)C(=O)N[C@H](Cc2c[nH]c3ccccc23)C(=O)N[C@@H](CCCCN)C(=O)N[C@@H]([C@@H](C)O)C(=O)N1)C(=O)O [[^61Cu]Cu-NOTA-TATE, metal not drawn]
- Biodistribution profile in PET/MR images ([1]; healthy control mice, 1 h and 4 h p.i.): rapid clearance with marked accumulation in the kidneys and bladder
- tissue uptake at 1 h [2]: 13.2 ± 1.86 %ID/g
- tissue to tissue ratio at 1 h ([2]; tumor and kidney): 4.25 ± 1.09
- tissue to tissue ratio at 4 h ([2]; tumor and kidney): 17.3 ± 4.99
- tissue to tissue ratio at 1 h ([2]; tumor and liver): 14.1 ± 4.29
- tissue to tissue ratio at 4 h ([2]; tumor and liver): 21 ± 1.28
- tissue to tissue ratio at 1 h ([2]; tumor and muscle): 255 ± 64.7
- tissue to tissue ratio at 4 h ([2]; tumor and muscle): 495 ± 109
- Tumor uptake (tumor activity) [3]: 12.81 ± 0.57 % ID/g
- tissue uptake at 2 h ([4]; intravenous): 0.13 ± 0.02 %ID/g
- tissue uptake at 4 h ([4]; intravenous): 0.09 ± 0.004 %ID/g
- tissue uptake at 1 h ([4]; iv): 0.19 ± 0.003 %ID/g
- Intracellular (internalized) activity [5]: 51.4%
- Maximum total uptake into AR42J [5]: 58.6 ± 3.6 %/10^6 cells
- Membrane-bound fraction over time [5]: ≤ 10%
- Intact radiopharmaceutical in urine (radioHPLC) [6]: 100%
- Time stable after EOS ([7]; after the EOS): at least 6 h
- In vitro stability (radiochemical purity by radioHPLC) ([7]; final formulation (10% EtOH), after 6 h of incubation): > 95%

SMILES: [Cl][Cu][Cl] [[^61Cu]CuCl2, copper chloride, reference compound]
- Biodistribution profile in PET/MR images ([1]; healthy mice, 1 h after injection): accumulation profile of free copper in the liver and the intestine

SMILES: C[C@@H](O)[C@H](NC(=O)[C@@H]1CSSC[C@H](NC(=O)[C@@H](Cc2ccccc2)NC(=O)CN2CCN(CC(=O)O)CCN(CC(=O)O)CCN(CC(=O)O)CC2)C(=O)N[C@@H](Cc2ccc(O)cc2)C(=O)N[C@H](Cc2c[nH]c3ccccc23)C(=O)N[C@@H](CCCCN)C(=O)N[C@@H]([C@@H](C)O)C(=O)N1)C(=O)O [[^68Ga]Ga-DOTA-TATE, metal not drawn, reference compound]
- Tumor uptake [8]: 3.14 ± 2.07%
- Biodistribution profile in PET/MR images [9]: significant tumor and bladder accumulation
- tissue uptake at 1 h [2]: 8.73 ± 0.45 %ID/g
- Intracellular (internalized) activity [5]: 51.2%
- Maximum total uptake into AR42J [5]: 62.5 ± 1.9 %/10^6 cells
- Membrane-bound fraction over time [5]: ≤ 10%
